{
  "source": "paper PMC7356578",
  "key": {"[1]": {"target": "KLK1-70Lm (KLK1 with D75, D76 and E77 replaced by arginines) (human)", "test": "kinetics of protease inhibition (discontinuous assay); 1 µM rKAL preincubated 5 min with LMWH (0-2.5 mg/mL) at room temperature, then 10 nM KLK1-70Lm; kobs plotted against LMWH"}, "[2]": {"target": "KLK1-99Lm (KLK1 with nine residues of its 99 loop deleted) (human) (UniProt P06870)", "test": "kinetics of protease inhibition (discontinuous assay); pseudo-first-order; 10 nM protease with 100-500 nM kallistatin variant, PBS, 0.1% PEG 8000, 22 ± 1 °C; apparent second-order rate constant kapp from kobs; k2 = kapp × SI"}, "[3]": {"target": "KLK1-70Lm (KLK1 with D75, D76 and E77 replaced by arginines) (human)", "test": "kinetics of protease inhibition (discontinuous assay); pseudo-first-order; 10 nM protease with 100-500 nM kallistatin variant, PBS, 0.1% PEG 8000, 22 ± 1 °C; apparent second-order rate constant kapp from kobs; k2 = kapp × SI"}},
  "data": [
    {"binder": "Recombinant human kallistatin (rKAL), wild type (natural protein) GSPSLKIAPANADFAFRFYYLIASETPGKNIFFSPLSISAAYAMLSLGACSHSRSQILEGLGFNLTELSESDVHRGFQHLLHTLNLPGHGLETRVGSALFLSHNLKFLAKFLNDTMAVYEAKLFHTNFYDTVGTIQLINDHVKKETRGKIVDLVSELKKDVLMVLVNYIYFKALWEKPFISSRTTPKDFYVDENTTVRVPMMLQDQEHHWYLHDRYLPCSVLRMDYKGDATVFFILPNQGKMREIEEVLTPEMLMRWNNLLRKRNFYKKLELHLPKFSISGSYVLDQILPRLGFTDLFSKWADLSGITKQQKLEASKSFHKATLDVDEAGTEAAAATSFAIKFFSAQTNRHILRFNRPFLVVIFSTSTQSVLFLGKVVDPTKP", "values": [
      {"measurement": "fold acceleration of the inhibition rate with LMWH against no heparin", "setting": "[1]", "value": 5, "unit": "fold"},
      {"measurement": "second-order association rate constant", "setting": "[2]", "value": 200, "unit": "M⁻¹ s⁻¹"},
      {"measurement": "k2 (second-order rate constant)", "setting": "[3]", "value": 1800, "unit": "M⁻¹ s⁻¹"}
    ]}
  ]
}
